{"source": "IntAct's records for PubMed 31515488", "parents": {"B1": {"name": "Leucine rich adaptor protein 1 (Homo sapiens), Q96LR2 (parent)", "chain": "MEGTVESQTPDLRDVEGKVGRKTPEGLLRGLRGECELGTSGALLLPGASSTGHDLGDKIMALKMELAYLRAIDVKILQQLVTLNEGIEAVRWLLEERGTLTSHCSSLTSSQYSLTGGSPGRSRRGSWDSLPDTSTTDRLDSVSIGSFLDTVAPSELDEQGPPGAPRSEMDWAKVIAGGERARTEVDVAATRLGSLRAVWKPPGERLQGGPPESPEDESAKLGFEAHWFWEQCQDDVTFL"}, "B2": {"name": "KH domain-containing, RNA-binding, signal transduction-associated protein 2 (Homo sapiens), Q5VWX1 (parent)", "chain": "MEEEKYLPELMAEKDSLDPSFVHASRLLAEEIEKFQGSDGKKEDEEKKYLDVISNKNIKLSERVLIPVKQYPKFNFVGKLLGPRGNSLKRLQEETGAKMSILGKGSMRDKAKEEELRKSGEAKYAHLSDELHVLIEVFAPPGEAYSRMSHALEEIKKFLVPDYNDEIRQEQLRELSYLNGSEDSGRGRGIRGRGIRIAPTAPSRGRGGAIPPPPPPGRGVLTPRGSTVTRGALPVPPVARGVPTPRARGAPTVPGYRAPPPPAHEAYEEYGYDDGYGGEYDDQTYETYDNSYATQTQSVPEYYDYGHGVSEDAYDSYAPEEWATTRSSLKAPPQRSARGGYREHPYGRY", "partner": "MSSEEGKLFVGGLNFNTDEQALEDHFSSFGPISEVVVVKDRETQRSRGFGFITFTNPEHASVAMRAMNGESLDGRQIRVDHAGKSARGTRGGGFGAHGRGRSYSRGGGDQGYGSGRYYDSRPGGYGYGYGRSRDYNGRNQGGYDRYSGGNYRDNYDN"}, "B3": {"name": "UDP-galactose translocator (Homo sapiens), P78381 (parent)", "chain": "MAAVGAGGSTAAPGPGAVSAGALEPGTASAAHRRLKYISLAVLVVQNASLILSIRYARTLPGDRFFATTAVVMAEVLKGLTCLLLLFAQKRGNVKHLVLFLHEAVLVQYVDTLKLAVPSLIYTLQNNLQYVAISNLPAATFQVTYQLKILTTALFSVLMLNRSLSRLQWASLLLLFTGVAIVQAQQAGGGGPRPLDQNPGAGLAAVVASCLSSGFAGVYFEKILKGSSGSVWLRNLQLGLFGTALGLVGLWWAEGTAVATRGFFFGYTPAVWGVVLNQAFGGLLVAVVVKYADNILKGFATSLSIVLSTVASIRLFGFHVDPLFALGAGLVIGAVYLYSLPRGAAKAIASASASASGPCVHQQPPGQPPPPQLSSHRGDLITEPFLPKLLTKVKGS"}, "B4": {"name": "Zinc finger CCCH-type with G patch domain-containing protein (Homo sapiens), Q8N5A5 (parent)", "chain": "MDEESLESALQTYRAQLQQVELALGAGLDSSEQADLRQLQGDLKELIELTEASLVSVRKSSLLAALDEERPGRQEDAEYQAFREAITEAVEAPAAARGSGSETVPKAEAGPESAAGGQEEEEGEDEEELSGTKVSAPYYSSWGTLEYHNAMVVGTEEAEDGSAGVRVLYLYPTHKSLKPCPFFLEGKCRFKENCRFSHGQVVSLDELRPFQDPDLSSLQAGSACLAKHQDGLWHAARITDVDNGYYTVKFDSLLLREAVVEGDGILPPLRTEATESDSDSDGTGDSSYARVVGSDAVDSAQSSALCPSLAVVGSDAVDSGTCSSAFAGWEVHTRGIGSRLLTKMGYEFGKGLGRHAEGRVEPIHAVVLPRGKSLDQCVETLQKQTRVGKAGTNKPPRCRGRGARPGGRPAPRNVFDFLNEKLQGQAPGALEAGAAPAGRRSKDMYHASKSAKRALSLRLFQTEEKIERTQRDIRSIQEALARNAGRHSVASAQLQEKLAGAQRQLGQLRAQEAGLQQEQRKADTHKKMTEF", "partner": "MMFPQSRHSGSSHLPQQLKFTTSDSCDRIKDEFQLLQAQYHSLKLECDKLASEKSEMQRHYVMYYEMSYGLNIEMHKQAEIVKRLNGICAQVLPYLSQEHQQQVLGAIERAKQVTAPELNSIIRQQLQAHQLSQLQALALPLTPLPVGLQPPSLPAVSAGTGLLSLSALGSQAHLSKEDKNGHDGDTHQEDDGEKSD"}, "B5": {"name": "Protein BANP (Homo sapiens), Q8N9N5 (parent)", "chain": "MMSEHDLADVVQIAVEDLSPDHPVVLENHVVTDEDEPALKRQRLEINCQDPSIKTICLRLDSIEAKLQALEATCKSLEEKLDLVTNKQHSPIQVPMVAGSPLGATQTCNKVRCVVPQTTVILNNDRQNAIVAKMEDPLSNRAPDSLENVISNAVPGRRQNTIVVKVPGQEDSHHEDGESGSEASDSVSSCGQAGSQSIGSNVTLITLNSEEDYPNGTWLGDENNPEMRVRCAIIPSDMLHISTNCRTAEKMALTLLDYLFHREVQAVSNLSGQGKHGKKQLDPLTIYGIRCHLFYKFGITESDWYRIKQSIDSKCRTAWRRKQRGQSLAVKSFSRRTPNSSSYCPSEPMMSTPPPASELPQPQPQPQALHYALANAQQVQIHQIGEDGQVQVGHLHIAQVPQGEQVQITQDSEGNLQIHHVGQDGQLLEATRIPCLLAPSVFKASSGQVLQGAQLIAVASSDPAAAGVDGSPLQGSDIQVQYVQLAPVSDHTAGAQTAEALQPTLQPEMQLEHGAIQIQ", "partner": "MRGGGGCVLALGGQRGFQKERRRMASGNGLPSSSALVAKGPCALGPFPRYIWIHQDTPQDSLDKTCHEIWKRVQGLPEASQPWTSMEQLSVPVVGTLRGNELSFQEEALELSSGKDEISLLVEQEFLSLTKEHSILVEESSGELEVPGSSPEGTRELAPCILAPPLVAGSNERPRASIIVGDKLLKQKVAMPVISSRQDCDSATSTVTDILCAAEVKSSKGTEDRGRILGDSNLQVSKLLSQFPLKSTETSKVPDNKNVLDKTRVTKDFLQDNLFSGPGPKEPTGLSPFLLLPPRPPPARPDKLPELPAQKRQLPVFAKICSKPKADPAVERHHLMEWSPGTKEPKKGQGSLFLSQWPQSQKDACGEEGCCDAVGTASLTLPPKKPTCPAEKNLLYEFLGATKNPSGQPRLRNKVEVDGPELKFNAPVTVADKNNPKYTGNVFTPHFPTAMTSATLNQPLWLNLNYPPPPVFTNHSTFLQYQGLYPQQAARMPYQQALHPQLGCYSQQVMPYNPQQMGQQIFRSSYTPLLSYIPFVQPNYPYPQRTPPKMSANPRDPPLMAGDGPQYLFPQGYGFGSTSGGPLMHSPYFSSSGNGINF"}, "B6": {"name": "Bcl-2-interacting killer (Homo sapiens), Q13323 (parent)", "chain": "MSEVRPLSRDILMETLLYEQLLEPPTMEVLGMTDSEEDLDPMEDFDSLECMEGSDALALRLACIGDEMDVSLRAPRLAQLSEVAMHSLGLAFIYDQTEDIRDVLRSFMDGFTTLKENIMRFWRSPNPGSWVSCEQVLLALLLLLALLLPLLSGGLHLLLK"}}}
{"variants_of": "B1", "conditions": "with tpm3_human TPM3, P06753"}
{"variant": "MEGTVESQTPDLRDVEGKVGRKTPEGLLRGLRGECELGTSGALLLPGASSTGHDLGDKIMALKMELAYLRAIDVKILQQLVTLNEGIEAVRWLLEERGTLTSHCSSLTSSQYSLTGGSPGRSRRGSWDSLPDTSTTDRLDSVSIGSFLDTVAPSELDEQGPPGAPRSEMDWAKVIAGGERARTEVDVAATRLGSLRAVWKPPGERLRGGPPESPEDESAKLGFEAHWFWEQCQDDVTFL", "note": "[Q207R]", "effect of a mutation on the interaction": "with no effect"}
{"variant": "MEGTVESQTPDLRDVEGKVGRKTPEGLLRGLRGECELGTSGALLLPGASSTGHDLGDKILALKMELAYLRAIDVKILQQLVTLNEGIEAVRWLLEERGTLTSHCSSLTSSQYSLTGGSPGRSRRGSWDSLPDTSTTDRLDSVSIGSFLDTVAPSELDEQGPPGAPRSEMDWAKVIAGGERARTEVDVAATRLGSLRAVWKPPGERLQGGPPESPEDESAKLGFEAHWFWEQCQDDVTFL", "note": "[M60L]", "effect of a mutation on the interaction": "with no effect"}
{"variants_of": "B2", "conditions": "with rbm3_human RBM3, P98179"}
{"variant": "MEEEKYLPELMAEKDSLDPSFVHASRLLAEEIEKFQGSDGKKEDEEKKYLDVISNKNIKLSERVLIPVKQYPKFNFVGKLLGPRGNSLKRLQEETGAKMSILGKGSMRDKAKEEELRKSGEAKYAHLSDELHVLIEVFAPPGEAYSRMSHALEEIKKFLVPDYNDEIRQEQLRELSYLNGSEDSGRGRGIRGRGIRIAPTAPSRGRGGAIPPPPPPGRGVLTPRGSTVTRGALPVPPVARGVPTPRARGAPTVPGYRAPPPPAHEAYEEYGYDDGYGGEYDDQTYETYDNSYATQTQSVPEYYDYGHGVSEDAYDSYAPEEWATTRSSLKAPLQRSARGGYREHPYGRY", "note": "[P333L]", "effect of a mutation on the interaction": "with no effect"}
{"variants_of": "B3", "conditions": "with pls1_human PLSCR1, O15162"}
{"variant": "MAAVGAGGSTAAPGPGAVSAGALEPGTASAAHRRLKYISLAVLVVQNASLILSIRYTRTLPGDRFFATTAVVMAEVLKGLTCLLLLFAQKRGNVKHLVLFLHEAVLVQYVDTLKLAVPSLIYTLQNNLQYVAISNLPAATFQVTYQLKILTTALFSVLMLNRSLSRLQWASLLLLFTGVAIVQAQQAGGGGPRPLDQNPGAGLAAVVASCLSSGFAGVYFEKILKGSSGSVWLRNLQLGLFGTALGLVGLWWAEGTAVATRGFFFGYTPAVWGVVLNQAFGGLLVAVVVKYADNILKGFATSLSIVLSTVASIRLFGFHVDPLFALGAGLVIGAVYLYSLPRGAAKAIASASASASGPCVHQQPPGQPPPPQLSSHRGDLITEPFLPKLLTKVKGS", "note": "[A57T]", "effect of a mutation on the interaction": "with no effect"}
{"variants_of": "B4", "conditions": "with tle5_human TLE5, Q08117"}
{"variant": "MDEESLESALQTYRAQLQQVELALGAGLDSSEQADLRQLQGDLKELIELTEASLVSVRKSRLLAALDEERPGRQEDAEYQAFREAITEAVEAPAAARGSGSETVPKAEAGPESAAGGQEEEEGEDEEELSGTKVSAPYYSSWGTLEYHNAMVVGTEEAEDGSAGVRVLYLYPTHKSLKPCPFFLEGKCRFKENCRFSHGQVVSLDELRPFQDPDLSSLQAGSACLAKHQDGLWHAARITDVDNGYYTVKFDSLLLREAVVEGDGILPPLRTEATESDSDSDGTGDSSYARVVGSDAVDSAQSSALCPSLAVVGSDAVDSGTCSSAFAGWEVHTRGIGSRLLTKMGYEFGKGLGRHAEGRVEPIHAVVLPRGKSLDQCVETLQKQTRVGKAGTNKPPRCRGRGARPGGRPAPRNVFDFLNEKLQGQAPGALEAGAAPAGRRSKDMYHASKSAKRALSLRLFQTEEKIERTQRDIRSIQEALARNAGRHSVASAQLQEKLAGAQRQLGQLRAQEAGLQQEQRKADTHKKMTEF", "note": "[S61R]", "effect of a mutation on the interaction": "with no effect"}
{"variants_of": "B5", "conditions": "with ca094_human C1orf94, Q6P1W5"}
{"variant": "MMSEHDLADVVQIAVEDLSPDHPVVLENHVVTDEDEPALKRQRLEINCQDPSIKTICLRLDSIEAKLQALEATCKSLEEKLDLVTNKQHSPIQVPMVAGSPLGATQTCNKVRCVVPQTTVILNNDRQNAIVAKMEDPLSNRAPDSLENVISNAVPGRRQNTIVVKVPGQEDSHHEDGESGSEASDSVSSCGQAGSQSIGSNVTLITLNSEEDYPNGTWLGDENNPEMRVRCAIIPSDMLHISTNCRTAEKMALTLLDYLFHREVQAVSNLSGQGKHGKKQLDPLTIYGIRCHLFYKFGITESDWYRIKQSIDSKCRTAWRRKQRGQSLAVKSFSRRTPNSSSYCPSESMMSTPPPASELPQPQPQPQALHYALANAQQVQIHQIGEDGQVQVGHLHIAQVPQGEQVQITQDSEGNLQIHHVGQDGQLLEATRIPCLLAPSVFKASSGQVLQGAQLIAVASSDPAAAGVDGSPLQGSDIQVQYVQLAPVSDHTAGAQTAEALQPTLQPEMQLEHGAIQIQ", "note": "[P348S]", "effect of a mutation on the interaction": "with no effect"}
{"variants_of": "B6", "conditions": "with BCL2L1, Q07817"}
{"variant": "MSEVRPLSRDILMETLLYEQLLEPPTMEVLGMTDSEEDLDPMEDFDSLECMEGSDALALRLACIGDEMEVSLRAPRLAQLSEVAMHSLGLAFIYDQTEDIRDVLRSFMDGFTTLKENIMRFWRSPNPGSWVSCEQVLLALLLLLALLLPLLSGGLHLLLK", "note": "[D69E]", "effect of a mutation on the interaction": "with no effect"}
